According to patent US20130156779A1 (GlaxoSmithKline, published 2013):
One block for each binder: values may come before it.

Tests used:
[1] = target: T1, Full-length human HER3 extracellular domain (ECD) (human, UniProt P21860 20-643); assay: affinity summary table, method not given
T1 construct: also called human HER3 ECD; HER-3 ECD full length

Human HER3 ECD domain II [2] = target: T2, Human HER3 ECD domain II (human, UniProt P21860 184-329); assay: affinity summary table, method not given
T2 construct: also called D2; Domain 2
T2 sequence (P21860 184-329): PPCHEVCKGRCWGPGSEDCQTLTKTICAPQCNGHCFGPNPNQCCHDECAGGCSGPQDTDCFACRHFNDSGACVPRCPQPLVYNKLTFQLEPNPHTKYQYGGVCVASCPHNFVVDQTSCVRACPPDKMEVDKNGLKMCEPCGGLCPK

[3] = target: T1, Full-length human HER3 extracellular …; assay: BIACORE 3000 SPR, mAb captured by anti-human Fc, ECD as analyte, 25 C
Protocol: The binding kinetics of these antibodies for was assessed using a BIACORE™ 3000. Antibodies were captured on a CM5 biosensor chip to which an immobilized anti-human IgG (Fc specific) BIACORE™ (GE Healthcare cat# BR-1008-39) monoclonal antibody had been conjugated using supplied coupling buffer (9000 RU). Full-length human HER3 ECD concentrations were injected for 120s at a flow rate of 30 ul/min. Biosensor chips were regenerated as described in Example 1. Kinetics were determined by global fitting of data to the 1:1 Langmuir model using BIACORE™ Evaluation software. Analytical runs were carried out at 25° C. using FIBS-EP as the running buffer.
Buffer cycle and double referencing were performed as described in Example 1; and 5) Regenerate biosensor chips with BIACORE™ optimized buffers.

[4] = target: T1, Full-length human HER3 extracellular …; assay: BIACORE 2000 SPR, mAb captured, HER3 protein as analyte, 25 C
Protocol: (§1) Mouse monoclonal antibodies were analysed using rabbit anti-mouse (RAM) IgG (GE Healthcare BR-1008-38) covalently coupled to a BIACORE™ CM5 chip (GE HEalthcare BR-1000-14) by primary amine chemistry (NHS/EDC activated) (GE Healthcare amine coupling kit BR-1000-50). Chimeric and humanized competitor monoclonal antibodies were analyzed using anti-human, Fc specific monoclonal (GE Healthcare BR-1008-39) similarly coupled. Each chip was also prepared with a reference surface to which no capture reagent antibody is coupled. Sensorgrams for cycles run with differing analyte concentrations are acquired for kinetic analysis. A cycle consists of capturing the monoclonal on the surface, a short stabilization period with flowing run buffer followed by binding of a defined concentration of analyte (ECD or sub-domain protein). Injection of analyte for surface binding (3-4 minutes) yields the association part of curve. This is followed by buffer only flow (3-4 minutes) which allows recording of dissociation data.
(§2) The general method for affinity analysis is as follows. First, chips were prepared and tested for reasonance units (RU) captured for several monoclonal antibody concentrations. Kinetic cycles were then run in which monoclonal antibody was captured to a level of approximately 100RU, analyte protein was allowed to bind then dissociate and the surface was regenerated to remove all but covalently coupled protein. RAM chips were regenerated with capture kit supplied 100 mM glycine pH1.7 and anti-human chips with capture kit supplied 3M MgCl₂. […] Several buffer cycles were run prior to analyte protein to ensure cycle consistency and in some experiments a buffer cycle is used a “double reference[.]” Analytes used were human full length HER3 extra cellular domain (ECD), separate sub-domains of the extracellular portion of human HER3 (D1, D2, D3, D4), or combination HER3 domain proteins (D1-2 and D2-3).

Human HER3 ECD domain II [5] = target: T2, Human HER3 ECD domain II; assay: as above
Protocol: as §1, §2

[6] = target: T3, Human HER3 ECD domain III (human, UniProt P21860 330-495); assay: affinity summary table, method not given
T3 construct: also called D3; Domain 3
T3 sequence (P21860 330-495): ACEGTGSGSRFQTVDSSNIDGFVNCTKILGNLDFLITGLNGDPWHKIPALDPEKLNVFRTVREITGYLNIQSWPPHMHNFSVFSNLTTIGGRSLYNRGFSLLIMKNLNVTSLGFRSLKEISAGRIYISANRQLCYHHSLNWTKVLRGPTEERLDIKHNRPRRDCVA

[7] = target: T3, Human HER3 ECD domain III; assay: BIACORE 2000 SPR, mAb captured, HER3 protein as analyte, 25 C
Protocol: as §1, §2

Human HER3 receptor [8] = target: T4, Human HER3 receptor (human, UniProt P21860 20-1342); assay: cell-based or functional assay
T4 sequence (P21860 20-1342 limits assumed): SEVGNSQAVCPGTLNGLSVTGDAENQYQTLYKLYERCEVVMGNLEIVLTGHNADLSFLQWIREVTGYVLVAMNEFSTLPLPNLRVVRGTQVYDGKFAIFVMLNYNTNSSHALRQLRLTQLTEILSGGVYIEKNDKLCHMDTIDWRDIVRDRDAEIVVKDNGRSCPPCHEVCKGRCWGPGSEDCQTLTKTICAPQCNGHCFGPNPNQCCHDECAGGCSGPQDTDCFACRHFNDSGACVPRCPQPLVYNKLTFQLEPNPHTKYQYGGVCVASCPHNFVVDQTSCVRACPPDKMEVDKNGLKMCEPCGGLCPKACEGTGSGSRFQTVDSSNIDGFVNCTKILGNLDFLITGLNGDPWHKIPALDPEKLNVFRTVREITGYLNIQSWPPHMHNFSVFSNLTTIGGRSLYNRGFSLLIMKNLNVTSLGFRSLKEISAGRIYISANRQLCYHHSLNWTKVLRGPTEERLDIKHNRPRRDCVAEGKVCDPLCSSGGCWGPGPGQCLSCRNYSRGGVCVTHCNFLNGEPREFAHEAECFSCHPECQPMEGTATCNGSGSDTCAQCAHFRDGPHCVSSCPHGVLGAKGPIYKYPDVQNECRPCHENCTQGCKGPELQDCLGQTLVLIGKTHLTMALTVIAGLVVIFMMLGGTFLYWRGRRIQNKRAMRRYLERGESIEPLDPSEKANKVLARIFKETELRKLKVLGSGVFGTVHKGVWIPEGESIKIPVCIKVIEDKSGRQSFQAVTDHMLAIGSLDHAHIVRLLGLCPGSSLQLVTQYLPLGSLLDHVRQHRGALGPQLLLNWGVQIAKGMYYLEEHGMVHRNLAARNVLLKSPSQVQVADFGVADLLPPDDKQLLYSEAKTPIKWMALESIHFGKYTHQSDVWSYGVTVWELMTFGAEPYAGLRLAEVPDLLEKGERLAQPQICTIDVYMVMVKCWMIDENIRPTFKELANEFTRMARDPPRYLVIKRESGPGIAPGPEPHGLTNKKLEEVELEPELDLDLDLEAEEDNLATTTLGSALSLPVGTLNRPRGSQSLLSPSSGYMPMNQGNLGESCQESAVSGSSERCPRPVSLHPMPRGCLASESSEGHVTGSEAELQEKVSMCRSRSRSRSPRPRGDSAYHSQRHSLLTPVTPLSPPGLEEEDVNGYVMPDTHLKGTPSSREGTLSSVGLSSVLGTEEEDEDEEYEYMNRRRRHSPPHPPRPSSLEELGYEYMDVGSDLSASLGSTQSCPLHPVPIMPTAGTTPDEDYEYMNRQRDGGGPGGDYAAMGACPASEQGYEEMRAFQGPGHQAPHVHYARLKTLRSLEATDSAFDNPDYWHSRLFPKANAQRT

Human HER3 receptor [9] = target: T4, Human HER3 receptor; assay: cell-based or functional assay; remark: listed apart in the source
Human HER3 receptor [10] = target: T4, Human HER3 receptor; assay: cell-based or functional assay; remark: listed apart in the source
Human HER3 ECD domain II [11] = target: T2, Human HER3 ECD domain II; assay: DELFIA, plate coated with HER3 Domain II 1ug/ml
Protocol: Dissociation Enhanced Lanthanide Fluorescence Immunoassay (DELFIA) for detection of the anti-HER3 antibodies to HER3 extracellular domain (ECD) was used. The DELFIA procedures were as follows: white Maxisorp 96-well plates (Nunc #437796) were coated with 100 ul/well of 1 ug/ml HER-3 ECD full length or HER3Domain I, II, III and IV in 0.1M carbonate buffer pH 9.5 overnight at 4° C. These plates were blocked with casein in TBS (Thermo Scientific #37532 lot#JD121074). The neat hybridoma supernatant, or the purified anti-HER3 antibodies diluted in Perkin Elmer #4002-0010 Assay Buffer from 10 ug/ml (or 100 ug/ml) to 0.01 ug/ml, or the PK serum samples with a minimum of 3 dilutions (100 ul/well) were added to the plate. These samples were incubated for 2 hours at room temperature while on a plate shaker or overnight at 4° C. […] The plate was washed 4 times with tris-buffer plus 0.05% tween-20 (Perkin Elmer #4010-0010) on a BIOTEK™ plate washer following each antibody incubation step. 100 ul/well of DELFIA enhancement solution (Perkin Elmer 1244-105) was added for 5 minutes at room temperature. […] Antibody binding was recorded as europium counts per well.

[12] = target: T1, Full-length human HER3 extracellular …; assay: BIACORE SPR, mAb captured on protein A, ECD as analyte, 25 C
Protocol: (§3) Protein A was immobilised on a CM5 chip by primary amine coupling to a level of ˜1300 resonance units (RU′s), humanized antibodies were then captured on this chip, All antibodies were captured to a similar level (100-200 RU's). […] Alternatively, the full-length, rat HER3 ECD or the full-length cynomolgus monkey ECD were passed over the chip at 10 nM, 5 nM, 2.5 nM, 1:25nM, 0.625 nM and 0.3125nM. An injection of buffer alone was used to double reference the binding curves as indicated in Example 1. Regeneration of this surface was achieved using 10 mM Glycine buffer pH 1.5. The binding data was fitted to the 1:1 model using BIACORE™ Evaluation software. Runs were carried out at 25° C. on a BIACORE™ T3000 using HBS-EP as running buffer.

[13] = target: T1, Full-length human HER3 extracellular …; assay: as above; remark: listed apart in the source
Protocol: as §3

[14] = target: T5, Full-length rat HER3 extracellular domain (ECD) (rat, UniProt Q62799 20-643); assay: as above
T5 construct: extracellular domain; also called Rat HER3 ECD
T5 sequence (Q62799 20-643): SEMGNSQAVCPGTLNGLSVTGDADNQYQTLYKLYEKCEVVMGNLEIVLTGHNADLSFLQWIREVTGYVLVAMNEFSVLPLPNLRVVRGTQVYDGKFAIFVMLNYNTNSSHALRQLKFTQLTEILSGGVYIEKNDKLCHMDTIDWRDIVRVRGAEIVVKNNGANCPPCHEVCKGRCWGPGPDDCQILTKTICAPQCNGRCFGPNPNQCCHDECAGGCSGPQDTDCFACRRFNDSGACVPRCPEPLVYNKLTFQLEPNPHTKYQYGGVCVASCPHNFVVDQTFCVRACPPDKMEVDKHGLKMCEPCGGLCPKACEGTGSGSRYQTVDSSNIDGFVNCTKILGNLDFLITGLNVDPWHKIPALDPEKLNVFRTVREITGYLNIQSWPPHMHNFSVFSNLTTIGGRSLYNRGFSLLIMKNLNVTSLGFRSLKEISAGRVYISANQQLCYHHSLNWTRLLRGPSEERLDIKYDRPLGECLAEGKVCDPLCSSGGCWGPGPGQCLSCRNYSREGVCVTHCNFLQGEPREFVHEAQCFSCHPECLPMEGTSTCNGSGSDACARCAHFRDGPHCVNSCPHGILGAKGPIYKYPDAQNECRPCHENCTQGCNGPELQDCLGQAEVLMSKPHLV
Protocol: as §3

[15] = target: T6, Full-length cynomolgus monkey HER3 extracellular domain (ECD) (cynomolgus monkey, UniProt G7PIG5 20-643); assay: as above
T6 construct: extracellular domain; also called Cynomolgus monkey HER3 ECD
T6 sequence (G7PIG5 entry or part of it): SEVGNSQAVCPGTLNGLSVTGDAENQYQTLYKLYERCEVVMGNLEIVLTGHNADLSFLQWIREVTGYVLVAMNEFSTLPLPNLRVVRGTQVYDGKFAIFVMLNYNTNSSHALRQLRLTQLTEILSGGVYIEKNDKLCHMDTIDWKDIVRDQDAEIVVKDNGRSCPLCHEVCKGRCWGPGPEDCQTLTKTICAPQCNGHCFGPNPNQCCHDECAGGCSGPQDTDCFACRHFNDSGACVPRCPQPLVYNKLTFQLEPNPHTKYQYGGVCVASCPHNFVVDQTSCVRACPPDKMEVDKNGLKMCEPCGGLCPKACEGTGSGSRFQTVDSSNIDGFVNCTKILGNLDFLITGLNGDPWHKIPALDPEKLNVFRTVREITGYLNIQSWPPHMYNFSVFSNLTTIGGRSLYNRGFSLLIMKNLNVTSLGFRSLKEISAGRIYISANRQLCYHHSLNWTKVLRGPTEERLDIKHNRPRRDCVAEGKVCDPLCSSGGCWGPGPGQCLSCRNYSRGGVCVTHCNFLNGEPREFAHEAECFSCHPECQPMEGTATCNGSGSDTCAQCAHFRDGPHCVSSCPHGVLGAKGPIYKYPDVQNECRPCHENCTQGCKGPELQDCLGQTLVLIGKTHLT
Protocol: as §3

T1 sequence (P21860 20-643): as the sequence (G7PIG5 entry or part of it) above, with K145R, Q151R, L166P, P180S, Y388H counted along it

Kd [1]: 3.5 nM | Kd (Human HER3 ECD domain II [2]): 0.074 nM | Kd [3]: 2.62 nM | koff [3]: 0.000196 s⁻¹ | kon [3]: 74900 M⁻¹ s⁻¹
B1: Humanized 15D5 antibody (H4L1) (antibody, human IgG1, V domains shown)
VH: QVQLVQSGAEVKKPGASVKVSCKASGYTFTDYNMNWVRQAPGQGLEWMGGINPNYGTTVYNQKFKGKVTLTVDTSISTAYMELSRLRSDDTAVYYCARMTTIVPFDYWGQGTTVTVSS
VL: DIQMTQSPSSLSASVGDRVTITCRASQDISNYLNWYQQKPGKAPKLLIYYTSTLHSGVPSRFSGSGSGTDYTFTISSLQPEDIATYYCQQGYTLPWTFGGGTKVEIKR
notes: Human IgG1; also called h15D5

Kd [1]: ~1 nM | Kd (Human HER3 ECD domain II [2]): 0.02 nM | Kd [4]: 0.87 nM | kon [4]: 67900 M⁻¹ s⁻¹ | Kd (Human HER3 ECD domain II [5]): 0.02 nM | kon (Human HER3 ECD domain II [5]): 3.82e+06 M⁻¹ s⁻¹ | Kd [3]: 3.19 nM | koff [3]: 0.00014 s⁻¹ | kon [3]: 44000 M⁻¹ s⁻¹
B2: Chimeric 15D5 antibody (antibody, human IgG1, V domains shown)
VH: EFQLQQSGPELVKPGASVKISCKASGYSFTDYNMNWVKQNNGKSLEWIGGINPNYGTTVYNQKFKGKATLTVDQSSSTAYMQLVSLTSEDSAVYYCARMTTIVPFDYWGQGTTLTVSS
VL: DIQMTQTTFSLSASLGDRVTISCRASQDISNYLNWYQQKPDGTVKLLIYYTSTLHSGVPSRFSGSGSGTDYFLTIRNLEEEDIATYFCQQGYTLPWTFGGGTKLDIK
notes: To be rechecked; also called Ch15D5; ch15D5

Kd [1]: ~1 nM | Kd [6]: 0.198 nM | Kd [4]: 1.1 nM | kon [4]: 740000 M⁻¹ s⁻¹ | Kd [7]: 0.2 nM | kon [7]: 4.58e+06 M⁻¹ s⁻¹
B3: Chimeric 1D9 antibody (antibody, V domains shown)
VH: QVQLQQPGAELVRPGTSVKLSCKASGYTFTSYWMHWVKQRPGQGLEWIGVIDPSDGYSHYNQKFKGKATLTVDTSSSTAYMQLSSLTSEDSAVYYCAGGLAGTLDYWGQGTTLTVSS
VL: DVLMTQTPLSLPVSLGDQASISCRSSQSIVHSSGNTYLQWFLQKPGQSPKLLISKVSNRFSGVPDRFSGSGSGTDFTLRISRVEAEDLGLYYCFQGSHVPWTFGGGTKLEIK
notes: Murine VH fused to human IgG1 CH1-Fc, murine VL fused to human CK; also called Ch1D9; ch1D9

IC50 of heregulin induced phospho-AKT formation, BxPC3 cells (Human HER3 receptor [8]): 0.0026 µg/mL | Phospho-HER3 ELISA IC50, heregulin induced, BxPC3 cells (Human HER3 receptor [9]): 0.0026 µg/mL | Phospho-HER3 ELISA IC50, heregulin induced, CHL-1 cells (Human HER3 receptor [9]): 0.0311 µg/mL | Phospho-HER3 ELISA IC50, heregulin induced, N87 cells (Human HER3 receptor [9]): 0.0094 µg/mL | Phospho-HER3 ELISA IC50, heregulin induced, SK-BR-3 cells (Human HER3 receptor [9]): 0.0025 µg/mL | Phospho-AKT ELISA IC50, heregulin induced, BxPC3 cells (Human HER3 receptor [10]): 0.0108 µg/mL | binding result (Human HER3 ECD domain II [11]): no binding (tested: 10 ug/ml) | Kd [12]: 2.06 nM | koff [12]: 0.00233 s⁻¹ | kon [12]: 1.13e+06 M⁻¹ s⁻¹
B4: Humanized 1D9 …B™ antibody (antibody, human IgG1, kappa)
heavy: QVQLVQSGAEVKKPGASVKVSCKASGYTFTSYWMHWVRQAPGQGLEWMGVIDPSDGYSHYNQKFKGKVTLTVDTSISTAYMELSRLRSDDTAVYYCAGGLAGTLDYWGQGTTVTVSSASTKGPSVFPLAPSSKSTSGGTAALGCLVKDYFPEPVTVSWNSGALTSGVHTFPAVLQSSGLYSLSSVVTVPSSSLGTQTYICNVNHKPSNTKVDKKVEPKSCDKTHTCPPCPAPELLGGPSVFLFPPKPKDTLMISRTPEVTCVVVDVSHEDPEVQFKWYVDGVEVHNAKTKPREEQFNSTFRVVSVLTVLHQDWLNGKEYKCKVSNKALPAPIEKTISKTKGQPREPQVYTLPPSREEMTKNQVSLTCLVKGFYPSDIAVEWESSGQPENNYKTTPPMLDSDGSFFLYSKLTVDKSRWQQGNIFSCSVMHEALHNHYTQKSLSLSPGK
light: DIQMTQSPSSLSASVGDRVTITCRSSQSIVHSSGNTYLQWFQQKPGKAPKLLIYKVSNRFSGVPSRFSGSGSGTDFTLTISSLQPEDFAVYYCFQGSHVPWTFGQGTKLEIKRTVAAPSVFIFPPSDEQLKSGTASVVCLLNNFYPREAKVQWKVDNALQSGNSQESVTEQDSKDSTYSLSSTLTLSKADYEKHKVYACEVTHQGLSSPVTKSFNRGEC
modifications: non-fucosylated glycans on the marked N* residue
notes: Chimeric IgG1/IgG3 Fc, expressed in FUT8- cells; also called humanized …B 1D9 antibody; humanized 1D9 H6L2 …B antibody

Phospho-HER3 ELISA IC50, heregulin induced, BxPC3 cells (Human HER3 receptor [9]): 0.0107 µg/mL | Phospho-HER3 ELISA IC50, heregulin induced, CHL-1 cells (Human HER3 receptor [9]): 0.0399 µg/mL | Phospho-HER3 ELISA IC50, heregulin induced, N87 cells (Human HER3 receptor [9]): 0.0297 µg/mL | Phospho-HER3 ELISA IC50, heregulin induced, SK-BR-3 cells (Human HER3 receptor [9]): 0.0044 µg/mL | Phospho-AKT ELISA IC50, heregulin induced, BxPC3 cells (Human HER3 receptor [10]): 0.0316 µg/mL | Kd [12]: 4.49 nM | koff [12]: 0.00122 s⁻¹ | kon [12]: 271000 M⁻¹ s⁻¹ | Kd [13]: 4.49 nM | koff [13]: 0.00122 s⁻¹ | kon [13]: 271000 M⁻¹ s⁻¹ | Kd [14]: 3.37 nM | koff [14]: 0.0011 s⁻¹ | kon [14]: 326000 M⁻¹ s⁻¹ | Kd [15]: 1.73 nM | koff [15]: 0.00189 s⁻¹ | kon [15]: 1.09e+06 M⁻¹ s⁻¹
B5: Humanized 1D9 Fc disabled antibody (antibody, V domains shown)
VH: QVQLVQSGAEVKKPGASVKVSCKASGYTFTSYWMHWVRQAPGQGLEWMGVIDPSDGYSHYNQKFKGKVTLTVDTSISTAYMELSRLRSDDTAVYYCAGGLAGTLDYWGQGTTVTVSS
VL: DIQMTQSPSSLSASVGDRVTITCRSSQSIVHSSGNTYLQWFQQKPGKAPKLLIYKVSNRFSGVPSRFSGSGSGTDFTLTISSLQPEDFAVYYCFQGSHVPWTFGQGTKLEIKR
notes: Humanized VH fused to a modified Fc domain incapable of mediating CDC/ADCC; also called humanized 1D9 H6L2 Fc disabled antibody
